The DeepSol protein solubility set

Assay: soluble on expression in E. coli; label from the status in PepcDB or PDB records

Row | Sequence | soluble on expression in E. coli
1 | MRTLYPEITPYQQGSLKVDDRHTLYFEQCGNPHGKPVVMLHGGPGGGCNDKMRRFHDPAKYRIVLFDQRGSGRSTPHADLVDNTTWDLVADIERLRTHLGVDRWQVFGGSWGSTLALAYAQTHPQQVTELVLRGIFLLRRFELEWFYQEGASRLFPDAWEHYLNAIPPVERADLMSAFHRRLTSDDEATRLAAAKAWSVWEGATSFLHVDEDFVTGHEDAHFALAFARIENHYFVNGGFFEVEDQLLRDAHRIADIPGVIVHGRYDVVCPLQSAWDLHKAWPKAQLQISPASGHSAFEPENVDALVRATDGFA | soluble
2 | MSLNRKTPKTTDGLMRHIRDNKGIQINGSTEKNQLRNIGYFHGFKGYNFFLNKEEELNFEKFSELHALYSFDTEIKNLFYKHVMFCETAIKNRLLEIVCVNSGFDLDSLFQKSLTYYKSYSPGSSKYKKHLKNTTRLRRDIYDMIHEHCNSKPYIYHYIHQDRTVPLYAVFELFTLGNLVFFTRCMSQNLNIEAQKQLKLYSPAFDQSKDILGDIIDCMKGLRNAIAHNGVLYDCRFKTGETSNRLKEYLAVKMDIHNLDFDRIIDYLILLILICSGLSYSKAELQRIIRQFEQNLDFLRSKISESTYDKIIGVRARPKLRSLKNFINNLDFYLKTDEGHHHHHH | soluble
3 | MAHHHHHHMGTLEAQTQGPGSMRLTVVGANGRMGRELITAIQRRKDVELCAVLVRKGSSFVDKDASILIGSDFLGVRITDDPESAFSNTEGILDFSQPQASVLYANYAAQKSLIHIIGTTGFSKTEEAQIADFAKYTTIVKSGNMSLGVNLLANLVKRAAKALDDDFDIEIYEMHHANKVDSPSGTALLLGQAAAEGRNIMLKNVSVNGRSGHTGKREKGTIGFACSRGGTVIGDHSITFAGENERIVLSHIAQERSIFANGALKAALWAKNHENGLYSMLDVLGLNE | soluble
4 | MIFSDWPWRHWRQVRGEAIALRLNDEQLNWRELCARVDELASGFAVQGVVEDSGVMLRAWNTPQTLLAWLALLQCGARVLPVNPQLPQPLLEELLPNLTLQFALVPDGENTFPALTSLHIQRVEGAHVATWQPTRLCSMTLTSGSTGLPKAAVHTYQAHLASAEGVLSLIPFGDHDDWLLSLPLFHVSGQGIMWRWLYAGARMTVRDKQPLEQMLAGCTHASLVPTQLWRLLVNRSSVSLKAVLLGGAAIPVELTEQAREQGIRCFCGYGLTEFASTVCAKEADGLADVGSPLPGREVKIVNNEVWLRAASMAEGYWRNGQLVSLVNDEGWYATRDRGEMHNGKLTIVGRLDNLFFSGGEGIQTEEVERVIAAHPAVLQVFIVPVADKEFGHRPVAVMEYDHESVDLSEWVKDKLARFQQPVRWLTLPPELKNGGIKISRQALKEWVQRQQ | not soluble
5 | MGSDKIHHHHHHMDKLRAIQLFVRLADLGSFTRVAEQVNSSKSMISKEISRLEADLGTRLLHRSTRSVQLTHVGEGYLQRAREILSKLDDADNFVQDLQQNLRGKLKINAPMALGITDLSHLFADFMKANPEIELDIHLGDESVDLVEQGFDLGFRASSQPIDSNYVGRPLTRFTYKVCVSPDYLKMHSTITHPRDLKEHNCFIYSYFQGKNVWPIEGGIEVKGSLRVNNTMFMMESIKQGLGIGFIPDFVCQQAINSGQVVEVLADSKKSMLTLYALYPVRNFVPPKLVQCIEYLEQWFADKDKP | not soluble
6 | PYSSGVDENYYQDLRNRFNHGELYSADSIPSLGGKIFKTAGGREVYGGGGIIPDIFIPLDTAGLNSYMMKVEDSDLIPRYAFLYSDANRVSLSRFKTVEELGAYLDRTYLIFDFASFAQRYGIPMRTSLINEARNRIKKYINAYIAMNFFDLQGYYQLLLHDDPFILQAISLIKEGKTFPLIYDQKGTQSTDPAA | not soluble
7 | MNNPKPCEWKSNELSRGYIADYKAFNFVDGEGVRCSLYVSGCPFHCEGCYNKAAQSFKYGKPYTKELEDDILKDIGHESVQGLTLLGGEPFLNTATCLSIVKRIRATYGETKDIWSWTGYTWDEMMQETADKLELLSLIDVLVDGRFEQKLFDPNLAFRGSSNQRIIDVQKSLAAGEVVLYELLEHHHHHH | not soluble
8 | MKTFFIVASLLAVGLVLAEDSEEKSEVKDVKPWKKLDFKKREPEFLKEMSQDAKTAYFGIKFNPELTKAEKTRMLKEWADQYDVEDDMQKFLDAKKADCDKKKQERKDNYERLGDLIEKADEILDDQENTWNGANEKLEALVKDENRDVMKAFQSFYPFVGRDSEGPRHGHGHGHGHRFHHGRRFGRNIGGGAAPRYNGGGIGSGISIGENPRHHNGGIGSGISMGERHRDGESYDAYGNSKHHHKKHHGF | not soluble
9 | MQLDPPEPGFYDDPDLSYSIEKSITNWDEKRHEWFKSHPSFKPGSENRILMVTGSQSSPCKNPIGDHLLLLRCFKNKVDYARIHGHDIFYSNSLLHPKMNSYWAKLPVVKAAMLAHPFMD | not soluble
10 | MGSDKIHHHHHHMPAISVQDVSKRFRVFAKPADRLKAAVRHRIGGLAKLVPARLLGTEGASEFHALQHVSFHVQKGETIGIIGRNGSGKSTLLQIICGTLTPSGGRVAINGRVAALLELGAGFNPEFTGRENVYMNAALLGLSKAQIEERLDAIFAFADIGGFVDQPVKTYSSGMYVRLAFAVIAHVDADVLVIDEALAVGDAFFTQKCMRFLRAFMERGTVLFVSHDTNAVVNLCTRVVWLDKGRVREIGPAKDVCDSYLEAFYEEQHCASGRSVRALERSSVVRAIAEGDMRDQRALLINASKLRNDVELFQFTADAKNFGLGGASIEHVGIEDGTGAPLNWVVGGEIVCIRIAVKALQNLERAIVGFIVRDRLGQNLFGDNTYLTTLNEPFAVAAGESFSVRFGFRMPVLPVGDYSVTVAVADGSQSDHVIHQWLHDAVLLKSHSTSVSTGLIGIPMHEIVLERDTLNEVGAAQ | not soluble
11 | MSLCAVTLMACNTAPHSLASSLPVPDALLFPQVQPEYKVAPGDLLLIKVFQVDDLERQVRVDNTGRITLPLLGSIEVSNKGAAELETLIANRYRSDYLQDPQVSVFIQEANARRVTVTGAVTEPGTYPLIGSNLTLQQVIAQAKGINTLASLQNVVVFRTVKGQKMLARFDLARIERGKDPDPEIYPGDLVVVYRSDMRLFLRTLVEITPFVMVWRAYREGHHHHHH | soluble
12 | MRIPRIYHPEPLTSHSHIALCEDAANHIGRVLRMGPGQALQLFDGSNQVFDAEITSASKKSVEVKVLEGQIDDRESPLHIHLGQVMSRGEKMEFTIQKSIELGVSLITPLFSERCGVKLDSERLNKKLQQWQKIAIAACEQCGRNRVPEIRPAMDLEAWCAEQDEGLKLNLHPRASNSINTLPLPVERVRLLIGPEGGLSADEIAMTARYQFTDILLGPRVLRTETTALTAITALQVRFGDLG | soluble
13 | MPLYKLTYFDARGYAEPARILFHLAGVPFEDNRLTHGDGSWEKIKDKTPFGQVPVLSVDGFDIPQSAAIIRYLANKFGYAGKTPEEQAWADAIVDQFKDFMGAFRQLIMAQRSGKPAEEIAKISSEVAIPARDSYFKILNGLLEKSKSGFLVGDGLTFADIVVVENLTTLEKNQFFTASEHPKLSALREKVHAVPAIKTWVATRPDTQF | not soluble
14 | MHLYDKRPGGGASFSQILGQAKNRQGIFFNTTFAVMGHVAKASGRVTETDIRIATLLMDQMRLTGDARKEAQQAFREGKEPDFDLCSSLQAFRAVTQGRQELVQMFIEIQIQTALSDGELDAAEHAILMTVAQELGYGRLEHHHHHH | not soluble
15 | MAHHHHHHMSVEELFATARKYSDSVVGGPAWDRLFSLRLTNEEILCIAKKMILSQPTFLMEVNGTKLEEIPPLAVAVRIEAFTNVPKSEGESGGVEKAVALEEKRTAAQQREVLRELASVRAQYRAVLREGNDLMACIDEEERRWNKIEMHREEEQRKRKEHPAAPPSEHDEHIRKNVCALETLQQKREKEEESAQATARTVMAEKKRKKTGKGSRGGGGSEKKFASTSNVTSKEAEIRNVRAHNTALRRLLEKLANELKEEEQTMENLSIDLRGFMSDINKLEKAKLLLTVEHGMLMNTTARLQQSLRDQKEKLRQEQEAAAAEQREISRRLLVQQERTKKSLHEKNGTTELLHRLKTNLSK | not soluble
